# Measured values published in patent publication US20140322717.
# System: TspRI (Thermus sp.?)
# Assay: cleavage_in_vitro
# Conditions: destruction of wild type PCR product during qPCR, 85 C denaturation
sequence,measurement,value
AGACATACTTATTGACTCTAAGAGGAAAGATGAAGTACTATGTTTTAAAGAATATTATATTACAGAATTATAGAAATTAGATCTCTTACCTAAACTCTTCATAAAGCTTGCTCTGATAGGAAAATGAGATCTACTGTTTTCCTTTACTTACTACACCTCAGATATATTTCTTCATGAAGACCTCACAGTAAAAATAGGTGATTTTGGTCTAGCTACAGTGAAATCTCGATGGAGTGAGTCCCATCAGTTTGAACAGTTGTCTGGATCCATTTTGTGGATGGTAAGAATTGAGGCTATTTTTCCACTGATTAAATTTTTGGCCCTGAGATGCTGCTGAGTTACTAGAAAGTCATTGAAGGTCTCAACTATAGTATTTTCATAGTTCCCAGT (double strand) [B-raf synthetic wild type template],activity,> 99%
